Laboratory results as given in article PMC8386010, “Nanobody-armed T cells endow CAR-T cells with cytotoxicity against lymphoma cells” (Cancer Cell International, 2021).
No end group written: not given here.

B1: Anti-CD19 Nb2 (VHH)
VHH: QVQLQESGGGSVQTGGSLRLSCAASGFSYTGHHMGWFRQVAAQEREWVGSIYTDPGTTFYADSVKGRFTISQDVAKKMVYLQMNNLKPTDTGIYFCAAEPVADGPPLMSRDRCFGSWGQGTQVTVSS
B2: Anti-CD19 Nb3 (VHH)
VHH: QVQLQESGGGSVQGGGSLRLSCAVSGATYMIQYMGWFRQAPGKEREGVAVIHSDDRTTYADSVKGRFTISQDNANHTLYLQMNSLKPEDTGMYVCASSLSKGGYYRGDLVPGQFTYWGRGTQVTVSS
B3: anti-CD19 Nb1 (VHH)
VHH: QVQLQESGGGSVQAGGSLRLSCAVRRPTDSRNCMAWFRQAPGEQREAVAGIDIYRTTGYAESVKGRFTISQDNAKNTLFLQMNSLKPEDSGTYYCAAARPCKYGSEWRRSASDFLYWGQGTQVTVSS
notes: nanobody selected from a Bactrian camel naive phage display library; In SPR it was captured by an anti-human IgG (Fc) antibody; also called anti-CD19 nanobody; source: cloned into the pCZN1 vector, expressed and purified
B4: human CD20 antigen (natural protein)
chain: KISHFLKMESLNFIRAHTPYINIYNCEPANPSEKNSPSTQYCYSIQS
modifications: cysteine pairing not given here; also: biotinylated for panning, position not given here

Experiments:
human CD19 antigen [1] = target: T1, human CD19 antigen (Homo sapiens, UniProt P15391)
human CD19 antigen [2] = target: T1, human CD19 antigen; test: SPR; Biacore T200; nanobody captured by immobilised mouse anti-human IgG (Fc) antibody; human CD19/CD20 antigen injected in 7 serial twofold dilutions from 10 µg/ml, 30 µl/min, association 120 s, dissociation 300 s; conditions: both partners purified
anti-CD20 Nb1 = target: T2, anti-CD20 Nb1 (Bactrian camel); test: as above; conditions: both partners purified
T2 construct: nanobody selected from a Bactrian camel naive phage display library; In SPR it was captured by an anti-human IgG (Fc) antibody; also called anti-CD20 nanobody; source: cloned into the pCZN1 vector, expressed and purified

T1 sequence (P15391 20-291): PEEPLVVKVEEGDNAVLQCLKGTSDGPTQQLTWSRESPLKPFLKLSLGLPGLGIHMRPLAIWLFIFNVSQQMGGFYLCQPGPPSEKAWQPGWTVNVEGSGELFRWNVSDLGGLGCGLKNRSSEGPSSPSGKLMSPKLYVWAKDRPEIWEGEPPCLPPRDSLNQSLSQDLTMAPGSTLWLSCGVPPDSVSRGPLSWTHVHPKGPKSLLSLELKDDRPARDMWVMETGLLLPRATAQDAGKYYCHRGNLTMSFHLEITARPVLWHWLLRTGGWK

Binder	binding result (human CD19 antigen [1])	other results
B1	binds	–
B2	binds	–
B3	–	Kd (human CD19 antigen [2]): 290 nM
B4	–	Kd (anti-CD20 Nb1): 147 nM
